Laboratory results published in patent US20230265217A1 (published 2023).
Where “and” joins values, the source holds several entries; their conditions need not be identical. Equal values may be shown once.

B1: 7-14 (VHH)
VHH: EVQLVESGGGLVQPGGSLRLSCAASGSTFSINAMGWFRQAPGKEREFVAGISRGGTTNYADSVKGRFTISADNSKNTAYLQMNSLKPEDTAVYYCAADGVPEYSDYASGPVWGQGTLVTVSS
B2: Variant 6A-3 (VHH)
VHH: EVQLVESGGGLVQPGGSLRLSCAASGFTFSPSWMGWFRQAPGKEREFVATINEYGGRNYADSVKGRFTISADNSKNTAYLQMNSLKPEDTAVYYCARVDRDFDYWGQGTLVTVSS
B3: 5A-3 (VHH)
VHH: EVQLVESGGGLVQPGGSLRLSCAASGSIFSIDVMGWFRQAPGKEREFVAGISWSGDSTLYADSVKGRFTISADNSKNTAYLQMNSLKPEDTAVYYCAAFDGYTGSDWGQGTLVTVSS
B4: 7-26 (VHH)
VHH: EVQLVESGGGLVQPGGSLRLSCAASGSTFSINAMGWFRQAPGKEREFVAGITSSGGYTNYADSVKGRFTISADNSKNTAYLQMNSLKPEDTAVYYCAADGVPEYSDYASGPVWGQGTLVTVSS
B5: Variant 3-31 (VHH)
VHH: EVQLVESGGGLVQPGGSLRLSCAASGSTFSINAMGWFRQAPGKEREFVAGITSSGGYTNYADSVKGRFTISADNSKNTAYLQMNSLKPEDTAVYYCAADGVPEYSDYASGPVWGQGTLVTVSS
B6: 7-37 (VHH)
VHH: EVQLVESGGGLVQPGGSLRLSCAASGSTLSINAMGWFRQAPGKEREFVAGITRSGSVTNYADSVKGRFTISADNSKNTAYLQMNSLKPEDTAVYYCAADGVPEYSDYASGPVWGQGTLVTVSS
B7: 3-31 (VHH)
VHH: EVQLVESGGGLVQPGGSLRLSCAASGSTFSINAMGWFRQAPGKEREFVAGITSSGGYTNYADSVKGRFTISADNSKNTAYLQMNSLKPEDTAVYYCAADGVPEYSDYASGPVWGQGTLVTVSS

Experiments:
[1] = target: Antibody 178-08_His 501.V2 (27079) (SARS-CoV-2, UniProt P0DTC2 14-685); assay: FACS
[2] = target: Antibody 178-09_His B.1.1.7 (27080) (SARS-CoV-2, UniProt P0DTC2 14-685); assay: FACS
178-6 [3] = assay: competition
[4] = target: SARS-CoV-2 S Trimer B.1.1.529 Omicron; assay: SPR
[5] = target: SARS-CoV-2 S1 Subunit Monomer B.1.1.529 Omicron; assay: SPR
178-6 [6] = assay: binding competition
[7] = target: Antibody 178-10_His CA_W152C_L452R_D614G (27081) (SARS-CoV-2, UniProt P0DTC2 14-685); assay: FACS
[8] = target: SARS-CoV-2 S1 Subunit Monomer B.1.617.2 Delta; assay: SPR

Binder	IC50 [1]	IC50 [2]	IC50 (178-6 [3])	Kd [4]	Kd [5]	IC50 (178-6 [6])	IC50 [7]	Kd [8]
B1	4.42 nM	2.52 nM	0.682 nM					
B2				< 0.04 nM	3.5 nM			
B3	0.587 nM	0.891 nM				0.904 nM		
B4	0.979 nM	1.42 nM	0.138 nM				0.56 nM and 0.634 nM	
B5				2.1 nM				1.1 nM
B6	2.1 nM	2.82 nM	7.51 nM					
B7	325 nM		1.25 nM				0.629 nM	
